Results reported in patent US8586538B2, “Method of treating a patient suffering from a bleeding disorder comprising administering an antibody against the A3-C1 of FVIII” (Stichting Sanquin Bloedvoorziening, priority 2002, dated 2013).

Key:
[1] = target: FVIIIa-FIXa complex (Homo sapiens, UniProt P00451+P00740); details: by interfering with the assembly of the FVIIIa-FIXa complex; cited from earlier work
[2] = target: T1, interaction between FVIII light chain and LRP cluster II (Homo sapiens, UniProt P00451); experiment: Solid-phase competition: FVIII light chain binding to immobilized LRP cluster II; details: FVIII light chain 25 nM
T1 construct: Recombinant LRP clusters II or IV (1 pmol/well) were adsorbed onto microtiter wells; made in house; host or cells: LRP cluster II: BHK cells; FVIII light chain: plasma-derived
T1 sequence (P00451 1668-2351): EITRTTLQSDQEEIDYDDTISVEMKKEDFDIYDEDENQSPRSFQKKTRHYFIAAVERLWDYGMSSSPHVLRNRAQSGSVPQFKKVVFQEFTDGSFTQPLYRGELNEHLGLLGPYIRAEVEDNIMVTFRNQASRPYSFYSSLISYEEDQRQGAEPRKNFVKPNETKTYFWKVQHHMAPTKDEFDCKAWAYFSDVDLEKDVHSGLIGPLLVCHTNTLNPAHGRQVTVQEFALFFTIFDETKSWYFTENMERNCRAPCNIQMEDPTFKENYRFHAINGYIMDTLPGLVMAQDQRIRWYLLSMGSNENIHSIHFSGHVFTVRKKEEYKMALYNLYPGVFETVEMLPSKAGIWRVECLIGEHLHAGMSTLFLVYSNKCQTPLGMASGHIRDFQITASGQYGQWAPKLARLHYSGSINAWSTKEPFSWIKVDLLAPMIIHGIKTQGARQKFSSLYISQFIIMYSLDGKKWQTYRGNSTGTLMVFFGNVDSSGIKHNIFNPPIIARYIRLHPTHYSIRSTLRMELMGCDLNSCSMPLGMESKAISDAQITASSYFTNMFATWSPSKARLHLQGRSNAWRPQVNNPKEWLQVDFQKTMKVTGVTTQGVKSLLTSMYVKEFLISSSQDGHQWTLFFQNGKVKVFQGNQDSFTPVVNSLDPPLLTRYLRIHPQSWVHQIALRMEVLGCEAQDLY
Procedure: FIG. 4. Effect of scFv antibody fragments on the interaction between FVIII light chain and LRP. A, FVIII light chain (LCh) (25 nM) was incubated with immobilized LRP cluster II (1 pmol/well) in a volume of 50 μl in 150 mM NaCl, 5 mM CaCl2, 1% (w/v) HSA, 0.1% Tween® 20, and 50 mM Tris (pH 7.4) in the presence of various concentrations (0-100 nM) of scFv KM41 (closed circles) or scFv KM36 (open circles) for 2 h at 37° C. After washing with the same buffer, bound FVIII light chain was quantified by incubation with peroxidase-conjugated anti-FVIII antibody CLB-CAg 12 for 15 min at 37° C. Residual binding is expressed as the percentage of binding in the absence of competitor and is corrected for nonspecific binding (less than 5% relative to binding to LRP cluster II-immobilized wells). Data represent the mean±S.D. of three experiments. B, FVIII light chain (50 nM) was incubated with immobilized LRP (16 fmol/mm^2) as described in the legend of FIG. 1. Binding was assessed in the absence (curve 1) or in the presence of increasing concentrations of scFv KM41 (20, 60, 300, 500 nM, curves 2-5, respectively). Complexes were allowed to form for 30 min before SPR analysis.
FIG. 5. Effect of scFv KM33 on the interaction between FVIII light chain and LRP. FVIII light chain (LCh) (25 nM) was incubated with immobilized LRP cluster II (1 pmol/well) in a volume of 50 μl in 150 mM NaCl, 5 mM CaCl2, 1% (w/v) HSA, 0.1% Tween® 20, and 50 mM Tris (pH 7.4) in the presence of various concentrations (0-30 nM) of scFv KM36 (open circles) or scFv KM33 (closed circles) for 2 h at 37° C. After washing with the same buffer, bound FVIII Light chain was quantified by incubation with peroxidase-conjugated anti-FVIII antibody CLB-CAg 12 for 15 min at 37° C. Residual binding is expressed as the percentage of binding in the absence of competitor and is corrected for nonspecific binding (less than 5% relative to binding to cluster-coated wells). Data represent the mean±S.D. of three experiments.
Recombinant LRP clusters II or IV (1 pmol/well) were adsorbed onto microtiter wells in 50 mM NaHCO3 (pH 9.8) in a volume of 50 μl for 16 h at 4° C. Wells were blocked with 2% (w/v) HSA, 150 mM NaCl, 5 mM CaCl2, and 50 mM Tris (pH 7.4) in a volume of 200 μl for 1 h at 37° C. After three rapid washes (less than 5 seconds each) with 150 mM NaCl, 5 mM CaCl2, 0.1% (v/v) Tween® 20, and 50 mM Tris (pH 7.4), FVIII light chain or its derivatives were incubated at various concentrations in a volume of 50 μl in a buffer containing 150 mM NaCl, 5 mM CaCl2, 1% (w/v) HSA, 0.1% (v/v) Tween® 20, and 50 mM Tris (pH 7.4) for 2 h. at 37° C. Bound ligand was detected by incubating with peroxidase-conjugated monoclonal antibody CLB-CAg 12 in the same buffer for 15 min at 37° C. […] In competition experiments, FVIII light chain (25 nM) was incubated with wells containing immobilized LRP clusters, either in the presence or absence of serial dilutions of competitor in a volume of 50 μl for 2 h at 37° C. Residual FVIII binding was detected as described above. Data were corrected for binding to empty microtiter wells, which was less than 5% relative to binding to wells containing immobilized LRP clusters.
(Note to Table II: Effect of FVIII a3-A3-C1 fragment derived synthetic peptides on the interaction between FVIII light chain and LRP cluster II. FVIII light chain (25 nM) was incubated with immobilized LRP cluster II (1 pmol/well) in a volume of 50 μl in 150 mM NaCl, 5 mM CaCl2, 1% (w/v) HSA, 0.1% Tween® 20, and 50 mM Tris (pH 7.4) in the presence or absence of various concentrations of synthetic peptide (0-1 mM) for 2 h at 37° C. After washing with the same buffer, bound FVIII light chain was quantified by incubation with peroxidase-conjugated anti-FVIII antibody CLB-CAg 12 for 15 min at 37° C. Half-maximum inhibition constants (IC50) represent the mean values±S.D. of three experiments.)

Sequence of FVIIIa-FIXa complex (P00740 47-191 limits assumed, one chain of several): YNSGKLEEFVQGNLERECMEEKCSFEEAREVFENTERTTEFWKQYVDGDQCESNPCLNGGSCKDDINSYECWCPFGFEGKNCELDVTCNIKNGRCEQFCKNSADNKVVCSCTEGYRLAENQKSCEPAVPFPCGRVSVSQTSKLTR

B1: scFv KM41: scFv antibody fragment directed against FVIII region Arg^1803-Lys^1818 (protein)
scFv: QVQLLQSAADVKKPGASVKVSCTASGYIFTSYDIDWVRQATGQGLEWMGWMNPNSGNAGFAQKFKGRLTLTRDTSTSTAYMELRRLESEDTAVYYCARSTPHSYSGSGLPPTSDSWGQGTLVTVSSGGGGSGGGGSGGGGSEIVLTQSPGTLSLSPGERATLSCRASQSVSSSFLGWYQQKPGQAPRLLIYGASSRATGIPDRFSGSGSGTDFTLTISRLEPEDFAVYYCQQYGISPLTFGGGTKLEIKRAAAEQKLISEEDLNGAAHHHHHH
- Inhibition of FVIII procoagulant activity [1]: effective inhibitors
- Effect on binding of FVIII light chain to immobilized LRP cluster II [2]: inhibited the binding
